Assay results from paper PMC4516155 (FASEB journal : official publication of the Federation of …, 2013).
Numbering of substitutions follows the chain as printed. In names and notes the source's numbering stands.

T1: GST-FE65 PTB1 (bacterially expressed) (UniProt O00213 361-514)
T1 sequence (looked up): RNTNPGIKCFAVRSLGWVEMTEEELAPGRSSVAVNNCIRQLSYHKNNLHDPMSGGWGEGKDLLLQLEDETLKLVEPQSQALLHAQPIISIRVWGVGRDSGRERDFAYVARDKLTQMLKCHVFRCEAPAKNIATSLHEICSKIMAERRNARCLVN

T2: GST-FE65 PTB1 (mammalian, pCIneo-GST-FE65 PTB1) (human, UniProt O00213 361-514)
T2 sequence (looked up): T1 sequence (looked up)

B1: Myc/His-tagged wild-type ARF6 (natural protein, UniProt P62330 1-175, looked up)
chain: MGKVLSKIFGNKEMRILMLGLDAAGKTTILYKLKLGQSVTTIPTVGFNVETVTYKNVKFNVWDVGGQDKIRPLWRHYYTGTQGLIFVVDCADRDRIDEARQELHRIINDREMRDAIILIFANKQDLPDAMKPHEIQEKLGLTRIRDRNWYVQPSCATSGDGLYEGLTWLTSNYKS
B2: Myc/His-tagged ARF6 T27N (natural protein, UniProt P62330 1-175, looked up)
chain: B1 chain with T27N
B3: Myc/His-tagged ARF6 Q67L (natural protein, UniProt P62330 1-175, looked up)
chain: B1 chain with Q67L

Legend:
[1] = target: T1, GST-FE65 PTB1 (bacterially expressed); assay: pull-down
[2] = target: T2, GST-FE65 PTB1 (mammalian, …); assay: pull-down

Binder | percent of input pulled down [1] | percent of input pulled down [2]
B1 | 12% | 
B2 | 27% | 23%
B3 | 0.7% | 2%
